Results from publication PMC10746679, “Mutations F352A and Y528A in human HSP90α reduce fibronectin association and fibrillogenesis in cell-derived matrices” (Cell Stress & Chaperones, 2023).

B1: His-HSP90α-F352A (natural protein)
chain: not shown
notes: Heat shock protein HSP 90-alpha, human, point mutant of the full-length His-HSP90α
B2: His-HSP90α-Y528A (natural protein)
chain: not shown
notes: as for B1
B3: His-HSP90α-H450A (natural protein)
chain: not shown
notes: as for B1
B4: His-HSP90α-E353A (natural protein)
chain: not shown
notes: as for B1
B5: His-HSP90α-R620A (natural protein)
chain: not shown
notes: as for B1

These binders were tested against Full-length fibronectin (UniProt P02751 32-2477) (assay: ELISA; solid-phase binding assay; FN-FL or FN70 coated on high-binding plates (25 μg/ml by the legend), blocked with 3% BSA in Buffer A; wild type or mutant His-HSP90α at varying concentrations added overnight at 4 °C; detected with anti-HSP90α antibody, HRP secondary, absorbance 450 nm). Settings: both partners purified.
Full-length fibronectin, sequence (P02751 other isoform, or with tags, fused parts or gaps, chain 1 of 2): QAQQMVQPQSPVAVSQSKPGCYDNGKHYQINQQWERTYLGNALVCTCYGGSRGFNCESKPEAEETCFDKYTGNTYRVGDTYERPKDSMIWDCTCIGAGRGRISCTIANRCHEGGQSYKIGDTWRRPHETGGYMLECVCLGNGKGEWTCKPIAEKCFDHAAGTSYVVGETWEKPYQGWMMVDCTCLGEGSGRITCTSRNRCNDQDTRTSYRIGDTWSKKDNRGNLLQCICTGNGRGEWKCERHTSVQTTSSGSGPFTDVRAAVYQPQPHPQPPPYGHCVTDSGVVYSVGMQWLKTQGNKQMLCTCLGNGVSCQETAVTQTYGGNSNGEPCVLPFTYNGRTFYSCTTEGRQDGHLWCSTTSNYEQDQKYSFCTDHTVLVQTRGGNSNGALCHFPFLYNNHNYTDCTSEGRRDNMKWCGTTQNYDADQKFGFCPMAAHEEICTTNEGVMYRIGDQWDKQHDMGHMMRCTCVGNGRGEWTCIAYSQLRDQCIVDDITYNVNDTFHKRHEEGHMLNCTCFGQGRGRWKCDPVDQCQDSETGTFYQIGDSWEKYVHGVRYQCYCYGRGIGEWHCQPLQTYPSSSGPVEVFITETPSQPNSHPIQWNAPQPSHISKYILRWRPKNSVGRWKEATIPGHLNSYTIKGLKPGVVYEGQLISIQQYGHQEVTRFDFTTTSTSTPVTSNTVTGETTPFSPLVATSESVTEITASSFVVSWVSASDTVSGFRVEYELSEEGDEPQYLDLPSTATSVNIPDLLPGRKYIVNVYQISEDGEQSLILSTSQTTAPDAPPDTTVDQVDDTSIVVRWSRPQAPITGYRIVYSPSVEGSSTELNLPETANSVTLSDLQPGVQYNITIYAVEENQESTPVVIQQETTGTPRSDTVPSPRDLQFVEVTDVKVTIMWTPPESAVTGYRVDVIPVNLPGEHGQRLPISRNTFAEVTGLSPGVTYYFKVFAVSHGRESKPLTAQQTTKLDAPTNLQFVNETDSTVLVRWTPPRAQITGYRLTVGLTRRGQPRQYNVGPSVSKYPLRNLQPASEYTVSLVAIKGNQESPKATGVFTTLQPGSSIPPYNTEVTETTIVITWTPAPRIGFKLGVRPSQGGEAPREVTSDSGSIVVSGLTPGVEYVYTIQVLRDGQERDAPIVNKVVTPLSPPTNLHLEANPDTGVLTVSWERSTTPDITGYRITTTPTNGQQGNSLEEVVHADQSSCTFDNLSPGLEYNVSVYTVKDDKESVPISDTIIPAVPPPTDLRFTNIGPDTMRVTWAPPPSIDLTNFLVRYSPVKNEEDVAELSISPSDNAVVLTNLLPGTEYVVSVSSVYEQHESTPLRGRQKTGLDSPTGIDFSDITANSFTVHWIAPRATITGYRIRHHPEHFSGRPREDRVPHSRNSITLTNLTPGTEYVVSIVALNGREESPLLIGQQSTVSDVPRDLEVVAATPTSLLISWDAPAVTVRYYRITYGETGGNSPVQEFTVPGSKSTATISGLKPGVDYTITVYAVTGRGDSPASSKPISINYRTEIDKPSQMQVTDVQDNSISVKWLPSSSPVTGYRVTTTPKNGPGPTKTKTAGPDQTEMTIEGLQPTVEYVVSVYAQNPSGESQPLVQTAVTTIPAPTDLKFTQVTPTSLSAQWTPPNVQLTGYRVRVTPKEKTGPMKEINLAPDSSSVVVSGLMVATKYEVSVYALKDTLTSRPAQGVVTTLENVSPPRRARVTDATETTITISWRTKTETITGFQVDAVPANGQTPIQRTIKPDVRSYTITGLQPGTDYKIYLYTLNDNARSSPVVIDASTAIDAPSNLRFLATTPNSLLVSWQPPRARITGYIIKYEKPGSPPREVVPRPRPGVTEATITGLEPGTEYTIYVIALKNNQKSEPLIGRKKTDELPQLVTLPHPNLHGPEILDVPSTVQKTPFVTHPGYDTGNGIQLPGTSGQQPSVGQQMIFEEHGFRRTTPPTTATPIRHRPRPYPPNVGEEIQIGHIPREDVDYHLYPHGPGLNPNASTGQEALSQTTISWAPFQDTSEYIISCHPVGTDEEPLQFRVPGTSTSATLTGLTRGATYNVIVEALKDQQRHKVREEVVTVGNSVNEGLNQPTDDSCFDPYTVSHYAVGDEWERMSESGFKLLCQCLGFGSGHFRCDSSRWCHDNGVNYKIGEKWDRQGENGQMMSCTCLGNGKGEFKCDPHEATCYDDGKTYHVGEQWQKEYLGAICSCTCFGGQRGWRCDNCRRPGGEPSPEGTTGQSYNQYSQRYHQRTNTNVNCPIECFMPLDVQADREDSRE
Full-length fibronectin, sequence (P02751 other isoform, or with tags, fused parts or gaps, chain 2 of 2): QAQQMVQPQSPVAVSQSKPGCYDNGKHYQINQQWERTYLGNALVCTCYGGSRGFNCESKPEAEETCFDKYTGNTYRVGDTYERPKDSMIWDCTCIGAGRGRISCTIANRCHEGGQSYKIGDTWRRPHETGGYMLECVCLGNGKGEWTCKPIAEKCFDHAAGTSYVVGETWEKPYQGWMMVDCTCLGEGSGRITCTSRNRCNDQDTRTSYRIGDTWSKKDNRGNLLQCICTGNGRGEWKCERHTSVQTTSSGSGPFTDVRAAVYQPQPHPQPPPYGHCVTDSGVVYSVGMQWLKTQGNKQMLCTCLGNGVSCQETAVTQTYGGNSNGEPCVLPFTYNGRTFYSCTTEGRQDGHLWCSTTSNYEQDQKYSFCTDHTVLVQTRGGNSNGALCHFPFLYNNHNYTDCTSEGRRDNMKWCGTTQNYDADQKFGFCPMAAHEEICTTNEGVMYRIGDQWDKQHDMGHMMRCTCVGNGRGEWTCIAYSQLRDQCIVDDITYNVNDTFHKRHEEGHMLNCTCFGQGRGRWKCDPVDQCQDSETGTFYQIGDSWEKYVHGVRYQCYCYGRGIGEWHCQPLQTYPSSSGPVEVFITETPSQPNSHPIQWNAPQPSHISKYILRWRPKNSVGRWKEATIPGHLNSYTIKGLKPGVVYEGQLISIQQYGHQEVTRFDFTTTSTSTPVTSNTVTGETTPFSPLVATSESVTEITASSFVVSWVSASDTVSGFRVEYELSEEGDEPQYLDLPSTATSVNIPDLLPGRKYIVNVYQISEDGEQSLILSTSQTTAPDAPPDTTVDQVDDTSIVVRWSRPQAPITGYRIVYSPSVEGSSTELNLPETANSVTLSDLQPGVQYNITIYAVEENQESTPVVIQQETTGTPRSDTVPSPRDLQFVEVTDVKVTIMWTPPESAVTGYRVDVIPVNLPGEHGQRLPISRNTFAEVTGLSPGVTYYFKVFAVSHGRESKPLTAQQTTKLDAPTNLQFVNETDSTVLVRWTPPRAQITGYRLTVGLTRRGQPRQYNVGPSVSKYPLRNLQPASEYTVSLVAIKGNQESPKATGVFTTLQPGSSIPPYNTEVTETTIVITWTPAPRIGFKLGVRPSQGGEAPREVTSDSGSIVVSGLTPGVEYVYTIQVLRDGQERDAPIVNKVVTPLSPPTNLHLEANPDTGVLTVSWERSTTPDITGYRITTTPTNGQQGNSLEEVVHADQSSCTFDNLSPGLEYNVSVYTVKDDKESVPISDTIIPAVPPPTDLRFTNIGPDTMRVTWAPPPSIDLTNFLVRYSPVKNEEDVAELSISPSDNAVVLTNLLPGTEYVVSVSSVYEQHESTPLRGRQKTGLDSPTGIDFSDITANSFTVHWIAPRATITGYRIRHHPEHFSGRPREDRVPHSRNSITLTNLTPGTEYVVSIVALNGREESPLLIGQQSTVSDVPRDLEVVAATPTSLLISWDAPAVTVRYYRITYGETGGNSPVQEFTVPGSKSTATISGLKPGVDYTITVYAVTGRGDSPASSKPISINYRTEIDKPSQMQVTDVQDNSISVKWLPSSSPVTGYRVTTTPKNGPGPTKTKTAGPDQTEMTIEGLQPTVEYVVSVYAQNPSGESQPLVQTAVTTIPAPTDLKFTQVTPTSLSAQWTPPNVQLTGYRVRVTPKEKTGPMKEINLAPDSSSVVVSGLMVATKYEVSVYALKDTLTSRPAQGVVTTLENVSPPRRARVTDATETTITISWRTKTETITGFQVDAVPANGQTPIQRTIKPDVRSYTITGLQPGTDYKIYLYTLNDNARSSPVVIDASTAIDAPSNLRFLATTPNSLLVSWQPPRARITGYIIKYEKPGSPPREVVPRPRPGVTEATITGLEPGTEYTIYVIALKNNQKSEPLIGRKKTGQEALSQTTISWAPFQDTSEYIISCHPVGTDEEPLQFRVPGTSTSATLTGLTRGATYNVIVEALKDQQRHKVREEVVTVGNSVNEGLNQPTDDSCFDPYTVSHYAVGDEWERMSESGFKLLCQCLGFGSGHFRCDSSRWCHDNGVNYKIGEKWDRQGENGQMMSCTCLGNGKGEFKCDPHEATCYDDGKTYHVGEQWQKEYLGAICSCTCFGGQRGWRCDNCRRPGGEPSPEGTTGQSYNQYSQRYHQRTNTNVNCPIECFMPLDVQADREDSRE

Row | percent reduction in binding against wild type His-HSP90α [%] | Binder
1 | ~40 | B1
2 | ~25 | B2
3 | ~25 | B3
4 | ~25 | B4
5 | ~25 | B5
